Consider one substance from patent US20240216271A1, “HYDROLYTICALLY DEGRADABLE HYDROGELS AND USES THEREOF” (GEORGIA TECH RESEARCH CORPORATION, priority 2021, published 2024).

The test system of the data set is primary monocytes derived from the bone marrow of C57BL/6J mice. Kind of data set: Bone marrow derived macrophage co-culture with microgels (flow cytometry). Type of data set: cell-based. The settings on record: 48 hr of co-culture. An excerpt: To assess the effects of microgels on immune cell polarization in vitro, a co-culture system was setup involving primary monocytes derived from the bone marrow of C57BL/6J mice with different formulations of crosslinked microgels. […] In addition, the overall expression of these markers was equivalent after 4 days of co-culture (FIGS. 11A-D).
Bone Marrow Derived Macrophage Co-culture: Bone marrow was isolated from the femurs and tibias of 6-week-old male C57BL/6J mice. Bones were cleaned of soft tissue, one side was cut to expose the marrow, and they were inverted in a 200 μL pipet tip cut to fit in a 1.5 mL Eppendorf tube. The bones were then centrifuged at 10,000×g for 15 sec to pellet the marrow in the bottom of the Eppendorf tube. Bones were discarded and cells were then resuspended in RBC Lysis Buffer (Biolegend 420302) to remove red blood cells. Cells were then washed in MACS buffer (DPBS pH 7.2, 0.5% BSA, 2 mM EDTA) and monocytes were isolated using the Monocyte Isolation Kit (BM), mouse (Miltenyi Biotec 130-100-629) and LS columns (Miltenyi Biotec 130-042-401).
Monocytes were cultured in RPMI 1640 media (Gibco 11875-085) supplemented with 10% heat-inactivated fetal bovine serum, 1% pen/strep, and 20 ng/mL murine M-CSF (Biolegend 574804) for 6 days in low-adherent plates. […] Samples were analyzed on a FACS-AriaIIIu flow cytometer (BD Biosciences).

For “IL-4: murine IL-4, 20 ng/ml; IL-4-polarized M2 positive control”, the “cell viability / cell survival” value is listed as “increase in cell numbers”.
